According to US10800813 (Bicycle, dated 2020):
Numbered stars: 1 amine (or outer) side, 2 acyl side, 3 side chain; on linkers, the order of the positions; unused ones are H or OH. Bridge positions count the residues as written; N and C are the ends. Square brackets hold non-standard residues; d marks the D form. Ends that are not written are not given here. Ind = L-indoline-2-carboxylic acid, O=C([C@@H]1Cc2ccccc2N1[*:1])[*:2]; Bip = N[C@@H](Cc1ccc(-c2ccccc2)cc1)C(=O)O; Tpi = O=C(O)[C@@H]1Cc2c([nH]c3ccccc23)CN1; Dip = N[C@H](C(=O)O)C(c1ccccc1)c1ccccc1; 1Nal = N[C@@H](Cc1cccc2ccccc12)C(=O)O; 2Nal = N[C@@H](Cc1ccc2ccccc2c1)C(=O)O; TBMB = c1c(C[*:1])cc(C[*:3])cc1C[*:2]; Hyp = O=C(O)[C@@H]1C[C@@H](O)CN1; 3Pal = N[C@@H](Cc1cccnc1)C(=O)O; 4Pal = N[C@@H](Cc1ccncc1)C(=O)O; Tic = O=C(O)[C@@H]1Cc2ccccc2CN1; Cha = N[C@@H](CC1CCCCC1)C(=O)O; 4FluoPro = 4-fluoroproline; Pip = O=C(O)[C@@H]1CCCCN1; Aze = O=C(O)[C@@H]1CCN1; Aib = CC(C)(N)C(=O)O

Molecular target: T1, human plasma Kallikrein (human, UniProt P03952 20-638, limits assumed)
T1 construct: also called hPK; human PK
T1 sequence (P03952 20-638 limits assumed): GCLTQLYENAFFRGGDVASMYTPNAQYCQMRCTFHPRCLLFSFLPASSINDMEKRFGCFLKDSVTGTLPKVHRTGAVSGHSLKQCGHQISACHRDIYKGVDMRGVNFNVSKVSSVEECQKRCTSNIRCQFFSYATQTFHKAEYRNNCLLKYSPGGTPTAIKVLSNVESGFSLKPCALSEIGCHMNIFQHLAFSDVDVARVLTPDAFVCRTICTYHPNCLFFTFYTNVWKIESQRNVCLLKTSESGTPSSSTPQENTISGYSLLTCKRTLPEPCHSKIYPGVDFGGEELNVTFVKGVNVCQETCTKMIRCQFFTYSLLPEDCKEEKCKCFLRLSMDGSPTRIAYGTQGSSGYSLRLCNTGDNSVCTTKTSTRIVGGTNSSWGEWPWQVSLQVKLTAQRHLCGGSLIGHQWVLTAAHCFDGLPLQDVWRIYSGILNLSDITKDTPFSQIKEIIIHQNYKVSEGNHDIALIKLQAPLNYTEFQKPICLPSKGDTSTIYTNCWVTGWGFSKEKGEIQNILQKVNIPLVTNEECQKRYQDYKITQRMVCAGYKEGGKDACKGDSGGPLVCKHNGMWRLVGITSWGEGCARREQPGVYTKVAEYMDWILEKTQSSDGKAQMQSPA
Experiment: enzyme inhibition assay

| Binder | fold increase in affinity against wildtype [fold] |
| --- | --- |
| Ac-CSW[Aze]ARCLHQDLC-NH2 (linker 1-7-13 via TBMB; SMILES CC(=O)N[C@H]1CSCc2cc3cc(c2)CSC[C@H](NC(=O)[C@H](CCCNC(=N)N)NC(=O)[C@H](C)NC(=O)[C@@H]2CCN2C(=O)[C@H](Cc2c[nH]c4ccccc24)NC(=O)[C@H](CO)NC1=O)C(=O)N[C@@H](CC(C)C)C(=O)N[C@@H](Cc1c[nH]cn1)C(=O)N[C@@H](CCC(N)=O)C(=O)N[C@@H](CC(=O)O)C(=O)N[C@@H](CC(C)C)C(=O)N[C@H](C(N)=O)CSC3, also called Ac-06-34-18(TMB)-NH2 Aze3) [Ac-(06-34-18) Aze3] | 3 |

Molecular target: T2, Rat plasma Kallikrein (rat, UniProt P14272 391-638, limits assumed)
T2 construct: domain: catalytic domain; also called rPK; rat PK
T2 sequence (P14272 391-638 limits assumed): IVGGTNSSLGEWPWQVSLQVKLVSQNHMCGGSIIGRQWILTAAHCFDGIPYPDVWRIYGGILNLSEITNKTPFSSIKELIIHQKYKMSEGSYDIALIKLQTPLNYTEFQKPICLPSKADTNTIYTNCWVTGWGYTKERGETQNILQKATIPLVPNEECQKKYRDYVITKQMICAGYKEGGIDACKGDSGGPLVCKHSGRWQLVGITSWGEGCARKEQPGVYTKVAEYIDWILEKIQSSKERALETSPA
Experiment: enzyme inhibition assay

| Binder | IC50 [nM] |
| --- | --- |
| ACSWPAKCLHQDLCA (linker 2-8-14 via TBMB, also called WPAK peptide) [06-34-19 (01 + 05 + R/K)] | 4.67 |

Molecular target: T1, human plasma Kallikrein
Experiment: enzyme inhibition assay
Remark: another data set of the same source

| Binder | Ki [nM] |
| --- | --- |
| Ac-CS[Bip]PARCLHQDLC-NH2 (linker 1-7-13 via TBMB; SMILES CC(=O)N[C@H]1CSCc2cc3cc(c2)CSC[C@H](NC(=O)[C@H](CCCNC(=N)N)NC(=O)[C@H](C)NC(=O)[C@@H]2CCCN2C(=O)[C@H](Cc2ccc(-c4ccccc4)cc2)NC(=O)[C@H](CO)NC1=O)C(=O)N[C@@H](CC(C)C)C(=O)N[C@@H](Cc1c[nH]cn1)C(=O)N[C@@H](CCC(N)=O)C(=O)N[C@@H](CC(=O)O)C(=O)N[C@@H](CC(C)C)C(=O)N[C@H](C(N)=O)CSC3) [Ac-(06-34-18) 4,4,BPal2] | 464 |
| Ac-CS[1Nal]PARCLHQDLC-NH2 (linker 1-7-13 via TBMB; SMILES CC(=O)N[C@H]1CSCc2cc3cc(c2)CSC[C@H](NC(=O)[C@H](CCCNC(=N)N)NC(=O)[C@H](C)NC(=O)[C@@H]2CCCN2C(=O)[C@H](Cc2cccc4ccccc24)NC(=O)[C@H](CO)NC1=O)C(=O)N[C@@H](CC(C)C)C(=O)N[C@@H](Cc1c[nH]cn1)C(=O)N[C@@H](CCC(N)=O)C(=O)N[C@@H](CC(=O)O)C(=O)N[C@@H](CC(C)C)C(=O)N[C@H](C(N)=O)CSC3) [Ac-(06-34-18) 1NAL2] | 10.7 |
| Ac-CS[2Nal]PARCLHQDLC-NH2 (linker 1-7-13 via TBMB; SMILES CC(=O)N[C@H]1CSCc2cc3cc(c2)CSC[C@H](NC(=O)[C@H](CCCNC(=N)N)NC(=O)[C@H](C)NC(=O)[C@@H]2CCCN2C(=O)[C@H](Cc2ccc4ccccc4c2)NC(=O)[C@H](CO)NC1=O)C(=O)N[C@@H](CC(C)C)C(=O)N[C@@H](Cc1c[nH]cn1)C(=O)N[C@@H](CCC(N)=O)C(=O)N[C@@H](CC(=O)O)C(=O)N[C@@H](CC(C)C)C(=O)N[C@H](C(N)=O)CSC3) [Ac-(06-34-18) 2NAL2] | 0.5 |
| Ac-CS[Dip]PARCLHQDLC-NH2 (linker 1-7-13 via TBMB; SMILES CC(=O)N[C@H]1CSCc2cc3cc(c2)CSC[C@H](NC(=O)[C@H](CCCNC(=N)N)NC(=O)[C@H](C)NC(=O)[C@@H]2CCCN2C(=O)[C@H](C(c2ccccc2)c2ccccc2)NC(=O)[C@H](CO)NC1=O)C(=O)N[C@@H](CC(C)C)C(=O)N[C@@H](Cc1c[nH]cn1)C(=O)N[C@@H](CCC(N)=O)C(=O)N[C@@H](CC(=O)O)C(=O)N[C@@H](CC(C)C)C(=O)N[C@H](C(N)=O)CSC3) [Ac-(06-34-18) 3,3-DPA2] | 1.5 |
| Ac-CS[3Pal]PARCLHQDLC-NH2 (linker 1-7-13 via TBMB; SMILES CC(=O)N[C@H]1CSCc2cc3cc(c2)CSC[C@H](NC(=O)[C@H](CCCNC(=N)N)NC(=O)[C@H](C)NC(=O)[C@@H]2CCCN2C(=O)[C@H](Cc2cccnc2)NC(=O)[C@H](CO)NC1=O)C(=O)N[C@@H](CC(C)C)C(=O)N[C@@H](Cc1c[nH]cn1)C(=O)N[C@@H](CCC(N)=O)C(=O)N[C@@H](CC(=O)O)C(=O)N[C@@H](CC(C)C)C(=O)N[C@H](C(N)=O)CSC3) [Ac-(06-34-18) 3Pal2] | 59 |
| Ac-CS[Tpi]PARCLHQDLC-NH2 (linker 1-7-13 via TBMB; SMILES CC(=O)N[C@H]1CSCc2cc3cc(c2)CSC[C@H](NC(=O)[C@H](CCCNC(=N)N)NC(=O)[C@H](C)NC(=O)[C@@H]2CCCN2C(=O)[C@@H]2Cc4c([nH]c5ccccc45)CN2C(=O)[C@H](CO)NC1=O)C(=O)N[C@@H](CC(C)C)C(=O)N[C@@H](Cc1c[nH]cn1)C(=O)N[C@@H](CCC(N)=O)C(=O)N[C@@H](CC(=O)O)C(=O)N[C@@H](CC(C)C)C(=O)N[C@H](C(N)=O)CSC3) [Ac-(06-34-18) NorHar2] | 24 |
| Ac-CS[Cha]PARCLHQDLC-NH2 (linker 1-7-13 via TBMB; SMILES CC(=O)N[C@H]1CSCc2cc3cc(c2)CSC[C@H](NC(=O)[C@H](CCCNC(=N)N)NC(=O)[C@H](C)NC(=O)[C@@H]2CCCN2C(=O)[C@H](CC2CCCCC2)NC(=O)[C@H](CO)NC1=O)C(=O)N[C@@H](CC(C)C)C(=O)N[C@@H](Cc1c[nH]cn1)C(=O)N[C@@H](CCC(N)=O)C(=O)N[C@@H](CC(=O)O)C(=O)N[C@@H](CC(C)C)C(=O)N[C@H](C(N)=O)CSC3) [Ac-(06-34-18) Cha2] | 4.7 |
| Ac-CS[4Pal]PARCLHQDLC-NH2 (linker 1-7-13 via TBMB; SMILES CC(=O)N[C@H]1CSCc2cc3cc(c2)CSC[C@H](NC(=O)[C@H](CCCNC(=N)N)NC(=O)[C@H](C)NC(=O)[C@@H]2CCCN2C(=O)[C@H](Cc2ccncc2)NC(=O)[C@H](CO)NC1=O)C(=O)N[C@@H](CC(C)C)C(=O)N[C@@H](Cc1c[nH]cn1)C(=O)N[C@@H](CCC(N)=O)C(=O)N[C@@H](CC(=O)O)C(=O)N[C@@H](CC(C)C)C(=O)N[C@H](C(N)=O)CSC3) [Ac-(06-34-18) 4Pal2] | 72 |

Molecular target: T1, human plasma Kallikrein
Experiment: enzyme inhibition assay
Remark: another data set of the same source

| Binder | Ki [nM] |
| --- | --- |
| Ac-CSW[Hyp]ARCLHQDLC-NH2 (linker 1-7-13 via TBMB; SMILES CC(=O)N[C@H]1CSCc2cc3cc(c2)CSC[C@H](NC(=O)[C@H](CCCNC(=N)N)NC(=O)[C@H](C)NC(=O)[C@@H]2C[C@@H](O)CN2C(=O)[C@H](Cc2c[nH]c4ccccc24)NC(=O)[C@H](CO)NC1=O)C(=O)N[C@@H](CC(C)C)C(=O)N[C@@H](Cc1c[nH]cn1)C(=O)N[C@@H](CCC(N)=O)C(=O)N[C@@H](CC(=O)O)C(=O)N[C@@H](CC(C)C)C(=O)N[C@H](C(N)=O)CSC3) [Ac-(06-34-18) HyP3] | 0.41 |
| Ac-CSW[Tic]ARCLHQDLC-NH2 (linker 1-7-13 via TBMB; SMILES CC(=O)N[C@H]1CSCc2cc3cc(c2)CSC[C@H](NC(=O)[C@H](CCCNC(=N)N)NC(=O)[C@H](C)NC(=O)[C@@H]2Cc4ccccc4CN2C(=O)[C@H](Cc2c[nH]c4ccccc24)NC(=O)[C@H](CO)NC1=O)C(=O)N[C@@H](CC(C)C)C(=O)N[C@@H](Cc1c[nH]cn1)C(=O)N[C@@H](CCC(N)=O)C(=O)N[C@@H](CC(=O)O)C(=O)N[C@@H](CC(C)C)C(=O)N[C@H](C(N)=O)CSC3) [Ac-(06-34-18) Tic3] | 13.5 |
| Ac-CSW[Tpi]ARCLHQDLC-NH2 (linker 1-7-13 via TBMB; SMILES CC(=O)N[C@H]1CSCc2cc3cc(c2)CSC[C@H](NC(=O)[C@H](CCCNC(=N)N)NC(=O)[C@H](C)NC(=O)[C@@H]2Cc4c([nH]c5ccccc45)CN2C(=O)[C@H](Cc2c[nH]c4ccccc24)NC(=O)[C@H](CO)NC1=O)C(=O)N[C@@H](CC(C)C)C(=O)N[C@@H](Cc1c[nH]cn1)C(=O)N[C@@H](CCC(N)=O)C(=O)N[C@@H](CC(=O)O)C(=O)N[C@@H](CC(C)C)C(=O)N[C@H](C(N)=O)CSC3) [Ac-(06-34-18) NorHar3] | 2.99 |
| Ac-CSW[Aze]ARCLHQDLC-NH2 (linker 1-7-13 via TBMB; SMILES CC(=O)N[C@H]1CSCc2cc3cc(c2)CSC[C@H](NC(=O)[C@H](CCCNC(=N)N)NC(=O)[C@H](C)NC(=O)[C@@H]2CCN2C(=O)[C@H](Cc2c[nH]c4ccccc24)NC(=O)[C@H](CO)NC1=O)C(=O)N[C@@H](CC(C)C)C(=O)N[C@@H](Cc1c[nH]cn1)C(=O)N[C@@H](CCC(N)=O)C(=O)N[C@@H](CC(=O)O)C(=O)N[C@@H](CC(C)C)C(=O)N[C@H](C(N)=O)CSC3, also called Ac-06-34-18(TMB)-NH2 Aze3) [Ac-(06-34-18) Aze3] | 0.06 |
| Ac-CSW[Aib]ARCLHQDLC-NH2 (linker 1-7-13 via TBMB; SMILES CC(=O)N[C@H]1CSCc2cc3cc(c2)CSC[C@H](NC(=O)[C@H](CCCNC(=N)N)NC(=O)[C@H](C)NC(=O)C(C)(C)NC(=O)[C@H](Cc2c[nH]c4ccccc24)NC(=O)[C@H](CO)NC1=O)C(=O)N[C@@H](CC(C)C)C(=O)N[C@@H](Cc1c[nH]cn1)C(=O)N[C@@H](CCC(N)=O)C(=O)N[C@@H](CC(=O)O)C(=O)N[C@@H](CC(C)C)C(=O)N[C@H](C(N)=O)CSC3) [Ac-(06-34-18) Aib3] | 1.2 |
| Ac-CSW[4FluoPro]ARCLHQDLC-NH2 (linker 1-7-13 via TBMB) [Ac-(06-34-18) 4FluoPro3] | 0.24 |
| Ac-CSW[Ind]ARCLHQDLC-NH2 (linker 1-7-13 via TBMB; SMILES CC(=O)N[C@H]1CSCc2cc3cc(c2)CSC[C@H](NC(=O)[C@H](CCCNC(=N)N)NC(=O)[C@H](C)NC(=O)[C@@H]2Cc4ccccc4N2C(=O)[C@H](Cc2c[nH]c4ccccc24)NC(=O)[C@H](CO)NC1=O)C(=O)N[C@@H](CC(C)C)C(=O)N[C@@H](Cc1c[nH]cn1)C(=O)N[C@@H](CCC(N)=O)C(=O)N[C@@H](CC(=O)O)C(=O)N[C@@H](CC(C)C)C(=O)N[C@H](C(N)=O)CSC3) [Ac-(06-34-18) Ind3] | 1.35 |
| Ac-CSW[Pip]ARCLHQDLC-NH2 (linker 1-7-13 via TBMB; SMILES CC(=O)N[C@H]1CSCc2cc3cc(c2)CSC[C@H](NC(=O)[C@H](CCCNC(=N)N)NC(=O)[C@H](C)NC(=O)[C@@H]2CCCCN2C(=O)[C@H](Cc2c[nH]c4ccccc24)NC(=O)[C@H](CO)NC1=O)C(=O)N[C@@H](CC(C)C)C(=O)N[C@@H](Cc1c[nH]cn1)C(=O)N[C@@H](CCC(N)=O)C(=O)N[C@@H](CC(=O)O)C(=O)N[C@@H](CC(C)C)C(=O)N[C@H](C(N)=O)CSC3) [Ac-(06-34-18) Pip3] | 0.26 |

Molecular target: T1, human plasma Kallikrein
Experiment: enzyme inhibition assay
Remark: another data set of the same source

| Binder | Ki [nM] |
| --- | --- |
| Ac-CSFP[2Nal]RCLHQDLC-NH2 (linker 1-7-13 via TBMB) [Ac-(06-34-18) Phe2 2Nal4] | 7.27 |
| Ac-CSFP[Bip]RCLHQDLC-NH2 (linker 1-7-13 via TBMB) [Ac-(06-34-18) Phe2 4,4-BPal4] | 10.5 |
